The target of assay [1] is adenylyl cyclase (AC) in rat spinal cord lysates / membrane preparations (rat). Description: cell-based or functional assay.
In assay [2] the target is adenylyl cyclase (AC) in rat dorsal root ganglia (DRG) lysates (rat). Description: cell-based or functional assay.

Results on 1 substance are retold here after patent US20050032744A1.

In assay [1], “Protein Associated with Myc (PAM), human, full length, purified from HeLa cells (from UniProt O75592 1-4678)” had an inhibition of Gαs-stimulated AC activity, spinal cord lysates of animals treated for 1 hour with formalin, 30 nM PAM of 25%; an inhibition of Gαs-stimulated AC activity, spinal cord lysates of control animals, 30 nM PAM of 49%; an inhibition of Gαs-stimulated AC activity, spinal cord lysates of rats 96 hours after zymosan injection, 30 nM PAM of 70%. Besides, the inhibition of Gαs-stimulated AC activity, DRG lysates, 30 nM PAM in assay [2] is 32%.
